US20240269283A1 (NINGBO T MAXIMUM BIOPHARMACEUTICALS, published 2024)
Where a chain is given by its changes, count along the chain named. Each block holds one binder with its values, some of them ahead of it.

Legend:
[1] = target: T1, B7H3 on U251 cells (UniProt Q5ZPR3 29-534, limits assumed); test: flow cytometry on U251 cells (expressing B7H3), MFI against antibody concentration
T1 construct: whole, on cells; also called U251 cells (expressing B7H3)
T1 sequence (looked up): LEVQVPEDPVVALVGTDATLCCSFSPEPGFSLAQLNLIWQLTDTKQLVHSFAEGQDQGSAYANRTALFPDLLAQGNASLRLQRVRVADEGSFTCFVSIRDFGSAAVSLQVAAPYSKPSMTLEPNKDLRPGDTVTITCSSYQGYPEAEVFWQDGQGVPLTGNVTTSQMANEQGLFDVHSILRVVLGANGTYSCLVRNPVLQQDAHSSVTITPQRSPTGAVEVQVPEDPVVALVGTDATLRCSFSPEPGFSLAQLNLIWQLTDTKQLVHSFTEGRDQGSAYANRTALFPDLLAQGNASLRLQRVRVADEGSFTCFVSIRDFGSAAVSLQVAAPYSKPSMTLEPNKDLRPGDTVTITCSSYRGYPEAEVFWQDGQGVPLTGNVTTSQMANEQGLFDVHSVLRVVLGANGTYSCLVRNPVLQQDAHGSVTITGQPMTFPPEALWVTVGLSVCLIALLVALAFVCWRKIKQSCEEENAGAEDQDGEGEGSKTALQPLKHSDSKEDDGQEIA
Procedure: Recombinant antibodies with different concentrations were incubated with U251 cells (expressing B7H3), and the binding of the antibodies to the cell surface was assayed by the mean fluorescence intensity (MFI) of the cells. From the results shown in FIG. 2, the 1A5 and 1G7 antibodies and the humanized antibodies thereof can effectively bind to the surface of the U251 cells.

[2] = target: T2, B7H3-Fc recombinant protein (human, UniProt Q5ZPR3 29-461); test: SPR, Biacore 8K, CM5 chip
T2 construct: also called human B7H3 protein; not shown: Fc part of the B7H3-Fc recombinant protein
T2 sequence (looked up): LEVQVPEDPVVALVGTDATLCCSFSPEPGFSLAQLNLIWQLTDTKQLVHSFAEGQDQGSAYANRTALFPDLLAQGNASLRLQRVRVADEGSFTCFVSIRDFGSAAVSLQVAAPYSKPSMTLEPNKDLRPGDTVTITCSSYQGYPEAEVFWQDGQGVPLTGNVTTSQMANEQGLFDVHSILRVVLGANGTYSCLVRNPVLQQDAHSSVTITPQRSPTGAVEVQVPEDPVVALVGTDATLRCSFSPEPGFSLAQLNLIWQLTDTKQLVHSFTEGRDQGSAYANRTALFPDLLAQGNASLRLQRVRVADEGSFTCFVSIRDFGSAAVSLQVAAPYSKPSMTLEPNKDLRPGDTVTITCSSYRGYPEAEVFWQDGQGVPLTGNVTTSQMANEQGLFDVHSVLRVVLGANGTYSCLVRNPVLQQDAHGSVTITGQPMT
Procedure: The mouse anti-human IgG (Fc) antibody was diluted with the immobilization reagent (sodium acetate, pH 5.0): 950 μL of the immobilization reagent was added to 50 μL of the mouse anti-human IgG (Fc) antibody. The dilution was used for immobilization in eight channels. First, the surface of the CM5 chip was activated for 360 s with EDC and NHS at a flow rate of 10 μL/min. Then, the mouse anti-human IgG (Fc) antibody was injected into the channels (channels 1-8, Fc1,2) at a flow rate of 10 μL/min for about 360 s, with the level of immobilization at about 7000 to 14,000 RU. Finally, the chip was blocked with ethanolamine at 10 μL/min for 420 s.
The human B7H3 protein was diluted 2-fold with the running reagent. The diluted human B7H3 protein was injected into the experimental channels and the reference channels in sequence at a flow rate of 30 μL/min, and corresponding periods of association and dissociation were allowed. The association and dissociation steps were all performed in the running reagent. After each concentration analysis, the chip needed to be regenerated with magnesium chloride at a flow rate of 20 μL/min for 30 s to wash away the ligand and undissociated analyte. For the next concentration analysis, the experimental channels needed to recapture the same amount of ligand.
A KD value was calculated for each sample using Biacore 8K analysis software Biacore Insight Evaluation Software. The reference channels (Fc1) were used for background subtraction.

B1: hu1A5 (VHH)
VHH: QVQLVESGGGLVQPGGSLRLSCAASGRIFSNYSVGWFRQAPGKEREFVAAIIWSTGTTYYADSVKGRFTISRDNSKNTLYLQMNSLRAEDTAVYYCAASFKYSGIYGREADFGSWGQGTLVTVSS
notes: a member of the group m3 (humanized antibodies of 1A5 and 1G7); also called humanized antibody of 1A5
binding result [1]: binds

B3: B7H3 single-domain antibody 1A5 (VHH)
VHH: QAQLVESGGGLVQTGGSLRLSCAASGRIFSNYSVGWFRQAPGKEREFVAAIIWSTGTTNLADPMKGRFTISRDNAKNTVVLQMNSLKPEDTAIYYCAASFKYSGIYGREADFGSWGQGTQVTVSS
notes: Called a single-domain antibody / recombinant antibody; also called 1A5 antibody; anti-B7H3 VHH antibody
binding result [1]: binds
Kd [2]: 7.39 nM
koff [2]: 0.0045 s⁻¹
kon [2]: 609000 M⁻¹ s⁻¹

Next, values leading:

binding result [1]: binds
B2: hu1G7 (VHH)
VHH: B1 VHH with Q1A, S33A, V34M, W53G, T58V, K101R, G113V
notes: a member of the group m3 (humanized antibodies of 1A5 and 1G7); also called humanized antibody of 1G7

EC50 (read off the curve) [1]: ~4 µg/mL
Kd [2]: 5.38 nM
koff [2]: 0.00618 s⁻¹
kon [2]: 1.15e+06 M⁻¹ s⁻¹
B4: B7H3 single-domain antibody 1G7 (VHH)
VHH: AVQLVESGGGLVQTGGSLRLSCADSGRIFSNYAMGWFRQAPGKEREFVAAIIGSTGTVNYADSMKGRFTISRDNAKNTVVLQMNSLKPEDTAIYYCAASFRYSGIYGREADFVSWGQGTQVTVSS
notes: Called a single-domain antibody / recombinant antibody; also called 1G7 antibody; anti-B7H3 VHH antibody
